Results taken from US20220242962A1 (APTEVO RESEARCH AND DEVELOPMENT, published 2022).
Values belong to the binder of their own block, whether it stands above or below them.

Tests used:
Full-length Human OX40 [1] = biological target: T1, Full-length Human OX40 (human, UniProt P43489 29-277); assay: cell-based or functional assay
T1 sequence: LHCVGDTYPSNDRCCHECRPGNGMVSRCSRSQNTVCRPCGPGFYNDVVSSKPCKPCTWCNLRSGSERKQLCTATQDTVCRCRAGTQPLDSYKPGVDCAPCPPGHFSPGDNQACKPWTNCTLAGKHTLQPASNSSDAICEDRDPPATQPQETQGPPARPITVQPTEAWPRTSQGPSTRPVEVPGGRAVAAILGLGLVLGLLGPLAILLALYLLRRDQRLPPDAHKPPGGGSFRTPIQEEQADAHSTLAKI

Full-length Human 4-1BB [2] = biological target: T2, Full-length Human 4-1BB (human, UniProt Q07011 24-255); assay: cell-based or functional assay
Full-length Human OX40 [3] = biological target: T1, Full-length Human OX40; assay: flow cytometry, CHO cells expressing human OX40
Full-length Human 4-1BB [4] = biological target: T2, Full-length Human 4-1BB; assay: flow cytometry, Jurkat cells expressing human 4-1BB
Method: (§1) Serial dilutions of ADAPTIR™ constructs were incubated with cells transfected with human or cynomolgus ECD and subsequently labelled with a fluorescently-conjugated goat-α-human Fc secondary antibody. […] (See Example 16.)

Human OX40 ECD-AFH = biological target: T3, Human OX40 ECD-AFH (human); assay: SPR (T200), construct captured, monomeric ECD as analyte
T3 construct: ECD'; entry includes the C-terminal tags; also called OXF003; Human OX40 ECD-avi-flag-his
T3 chain: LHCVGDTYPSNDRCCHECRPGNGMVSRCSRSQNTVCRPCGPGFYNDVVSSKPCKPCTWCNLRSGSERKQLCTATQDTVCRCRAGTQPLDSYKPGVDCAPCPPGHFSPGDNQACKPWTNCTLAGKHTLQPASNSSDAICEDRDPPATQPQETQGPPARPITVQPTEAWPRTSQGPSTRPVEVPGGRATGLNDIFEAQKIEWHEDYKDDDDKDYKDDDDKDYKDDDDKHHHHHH
Method: (§2) Mouse anti-human IgG (GE, BR-1008-39) at 25 μg/ml in 10 mM sodium acetate pH 5.0 was immobilized at a density of ˜10,000 response units (RU) onto each flow cell of a CM5 research-grade sensor chip (GE) by standard amine coupling chemistry. Each binding protein at approximately 100 nM in HBS-EP+ with 0.2% BSA buffer was captured in a flow cell with the immobilized anti-human IgG at a flow rate of 10 μL/min for 20 seconds, leaving one flow cell surface unmodified as the reference. Using a single-cycle kinetics mode, five different concentrations of ECD were sequentially injected through each flow cell at 30 μL/min for 300 seconds followed by a 600 second dissociation period. Regeneration was achieved by injection of 3 M MgCl₂ at a flow rate of 30 μL/min for 30 seconds followed by HBS-EP+ with 0.2% BSA buffer stabilization for 1 min.
(§3) Sensorgrams obtained from kinetic SPR measurements were analyzed by the double subtraction method. The signal from the reference flow cell was subtracted from the analyte binding response obtained from flow cells with immobilized or captured ligands. Buffer reference responses were then averaged from multiple injections. The averaged buffer reference responses were then subtracted from analyte binding responses, and the final double-referenced data were analyzed with Biacore T200 Evaluation software (2.0, GE), globally fitting data to derive kinetic parameters. All sensorgrams were fitted using a simple one-to-one binding model.

Human 4-1BB ECD-AFH = biological target: T4, Human 4-1BB ECD-AFH (human); assay: as above
T4 construct: entry includes the tags; also called FOB003; HUMAN CD137 ECD-AVI-FLAG-HIS
T4 sequence (chain, as listed by the source limits assumed): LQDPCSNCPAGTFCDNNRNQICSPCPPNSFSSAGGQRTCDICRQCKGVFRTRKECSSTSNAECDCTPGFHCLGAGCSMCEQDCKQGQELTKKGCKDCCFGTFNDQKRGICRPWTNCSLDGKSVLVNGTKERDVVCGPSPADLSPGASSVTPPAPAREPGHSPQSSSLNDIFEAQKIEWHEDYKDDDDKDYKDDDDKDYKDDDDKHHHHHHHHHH
Method: as §2, §3

Full-length Cyno 4-1BB = biological target: T5, Full-length Cyno 4-1BB (cynomolgus monkey, UniProt Q07011 24-255 (human entry)); assay: flow cytometry on Jurkat cells transfected with cynomolgus 4-1BB, goat anti-human Fc secondary antibody, MFI (Mean)
T5 construct: on Jurkat or CHO cells; also called FOB006; cynomolgus 4-1BB
T5 chain: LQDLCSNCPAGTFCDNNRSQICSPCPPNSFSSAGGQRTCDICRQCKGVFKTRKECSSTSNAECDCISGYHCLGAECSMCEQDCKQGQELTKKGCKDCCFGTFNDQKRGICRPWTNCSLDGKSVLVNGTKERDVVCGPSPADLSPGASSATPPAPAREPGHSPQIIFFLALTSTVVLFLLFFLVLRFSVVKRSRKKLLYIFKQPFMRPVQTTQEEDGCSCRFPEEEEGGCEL
Method: as §1

Full-length Cyno OX40 = biological target: T6, Full-length Cyno OX40 (cynomolgus monkey, UniProt P43489 29-277 (human entry)); assay: flow cytometry on CHOK1SV cells transfected with cynomolgus OX40, goat anti-human Fc secondary antibody, MFI (Mean)
T6 construct: on CHO-K1SV cells; also called OXF004; cynomolgus OX40
T6 chain: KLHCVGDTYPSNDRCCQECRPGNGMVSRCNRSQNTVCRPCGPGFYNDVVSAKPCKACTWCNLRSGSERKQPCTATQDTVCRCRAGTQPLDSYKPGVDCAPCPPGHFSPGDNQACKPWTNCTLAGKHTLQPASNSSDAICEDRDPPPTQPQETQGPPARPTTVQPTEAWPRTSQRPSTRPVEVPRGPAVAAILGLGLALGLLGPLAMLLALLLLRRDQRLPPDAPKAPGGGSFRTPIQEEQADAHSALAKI
Method: as §1

OX40 Reporter Assay EC50 (Full-length Human OX40 [1]): 0.013 nM
OX40 Reporter Assay Max induction (Full-length Human OX40 [1]): 2.03e+06
4-1BB Reporter Assay EC50 (Full-length Human 4-1BB [2]): 0.013 nM
4-1BB Reporter Assay Max induction (Full-length Human 4-1BB [2]): 6.82e+06
EC50 (Full-length Human OX40 [3]): 0.4 nM
Max MFI (Full-length Human OX40 [3]): 10400 MFI
EC50 (Full-length Human 4-1BB [4]): 0.27 nM
Max MFI (Full-length Human 4-1BB [4]): 4750 MFI
Kd (Human OX40 ECD-AFH): 0.3 nM
koff (Human OX40 ECD-AFH): 0.00013 s⁻¹
kon (Human OX40 ECD-AFH): 440000 M⁻¹ s⁻¹
Kd (Human 4-1BB ECD-AFH): 21 nM
koff (Human 4-1BB ECD-AFH): 0.0018 s⁻¹
kon (Human 4-1BB ECD-AFH): 84000 M⁻¹ s⁻¹
EC50 (read off the curve) (Full-length Cyno 4-1BB): ~1 nM
EC50 (read off the curve) (Full-length Cyno OX40): ~2 nM
B1: FXX01055 (bispecific antibody)
chain: SYVLTQPPSVSVAPGQTARITCGGNNIGSKSVNWFQQKPGQAPVLVVYDDSGRPSGIPERFSGSTSGNTATLTISRVEAGDEADYYCQVWDSSSDHVVFGGGTKLTVLGGGGSGGGGSGGGGSGGGGSQVQLVESGGGVVQPGRSLRLSCAASGFTLSYYGMHWVRQAPGKGLEWVAVISHDGSDKYYADSVKGRFTISRDNSKNTLYLQMNSLRAEDTAVYYCSNDQFDPWGQGTLVTVEPKSSDKTHTCPPCPAPPAAAPSVFLFPPKPKDTLMISRTPEVTCVVVDVSHEDPEVKFNWYVDGVEVHNAKTKPREEQYNSTYRVVSVLTVLHQDWLNGKEYKCAVSNKALPAPIEKTISKAKGQPREPQVYTLPPSRDELTKNQVSLTCLVKGFYPSDIAVEWESNGQPENNYKTTPPVLDSDGSFFLYSKLTVDKSRWQQGNVFSCSVMHEALHNHYTQKSLSLSPGGGGSPSEVQLVQSGAEVKKPGASVKVSCKASGYTFTSYWMNWVRQAPGQGLEWMGNIYPGSSTTNYAQKFQGRVTMTVDTSTSTVYMELSSLRSEDTAVYYCASFSDGYYAYAMDYWGQGTLVTVSSGGGGSGGGGSGGGGSGGGGSEIVMTQSPATLSLSPGERATLSCRASQDISNYLNWYQQKPGQAVRLLIYYTSRLHSGIPARFSGSGSGTDYTLTISSLQPEDFAVYFCQQGYTLPYTFGQGTKVEIKR
notes: ADAPTIR scFv-Fc-scFv, anti-OX40 N-terminal, anti-4-1BB C-terminal; also called FX01055

OX40 Reporter Assay EC50 (Full-length Human OX40 [1]): 0.023 nM
OX40 Reporter Assay Max induction (Full-length Human OX40 [1]): 470000
4-1BB Reporter Assay EC50 (Full-length Human 4-1BB [2]): 0.025 nM
4-1BB Reporter Assay Max induction (Full-length Human 4-1BB [2]): 6.26e+06
EC50 (Full-length Human OX40 [3]): 1.4 nM
Max MFI (Full-length Human OX40 [3]): 9820 MFI
EC50 (Full-length Human 4-1BB [4]): 0.53 nM
Max MFI (Full-length Human 4-1BB [4]): 4120 MFI
Kd (Human OX40 ECD-AFH): 0.3 nM
koff (Human OX40 ECD-AFH): 0.00012 s⁻¹
kon (Human OX40 ECD-AFH): 450000 M⁻¹ s⁻¹
Kd (Human 4-1BB ECD-AFH): 37 nM
koff (Human 4-1BB ECD-AFH): 0.0038 s⁻¹
kon (Human 4-1BB ECD-AFH): 100000 M⁻¹ s⁻¹
binding result (Full-length Cyno 4-1BB): binds
EC50 (read off the curve) (Full-length Cyno OX40): ~2 nM
B2: FXX01079 (bispecific antibody)
chain: SYVLTQPPSVSVAPGQTARITCGGNNIGSKSVNWFQQKPGQAPVLVVYDDSGRPSGIPERFSGSTSGNTATLTISRVEAGDEADYYCQVWDSSSDHVVFGGGTKLTVLGGGGSGGGGSGGGGSGGGGSQVQLVESGGGVVQPGRSLRLSCAASGFTLSYYGMHWVRQAPGKGLEWVAVISHDGSDKYYADSVKGRFTISRDNSKNTLYLQMNSLRAEDTAVYYCSNDQFDPWGQGTLVTVEPKSSDKTHTCPPCPAPPAAAPSVFLFPPKPKDTLMISRTPEVTCVVVDVSHEDPEVKFNWYVDGVEVHNAKTKPREEQYNSTYRVVSVLTVLHQDWLNGKEYKCAVSNKALPAPIEKTISKAKGQPREPQVYTLPPSRDELTKNQVSLTCLVKGFYPSDIAVEWESNGQPENNYKTTPPVLDSDGSFFLYSKLTVDKSRWQQGNVFSCSVMHEALHNHYTQKSLSLSPGGGGSPSEVQLVQSGAEVKKPGASVKVSCKASGYTFTSYWMNWVRQAPGQGLEWMGNIYPSGGSTNYAQKFQGRVTMTVDTSTSTVYMELSSLRSEDTAVYYCASFSDGYYAYAMDYWGQGTLVTVSSGGGGSGGGGSGGGGSGGGGSEIVMTQSPATLSLSPGERATLSCRASQSVSSYLNWYQQKPGQAPRLLIYYASRRHTGIPARFSGSGSGTDFTLTISSLQPEDFAVYYCQQGYNLPYTFGQGTKVEIKR
notes: ADAPTIR scFv-Fc-scFv, anti-OX40 N-terminal, anti-4-1BB C-terminal; also called FX01079

OX40 Reporter Assay EC50 (Full-length Human OX40 [1]): 0.01 nM
OX40 Reporter Assay Max induction (Full-length Human OX40 [1]): 1.97e+06
4-1BB Reporter Assay EC50 (Full-length Human 4-1BB [2]): 0.014 nM
4-1BB Reporter Assay Max induction (Full-length Human 4-1BB [2]): 6.58e+06
EC50 (Full-length Human OX40 [3]): 0.35 nM
Max MFI (Full-length Human OX40 [3]): 10500 MFI
EC50 (Full-length Human 4-1BB [4]): 0.32 nM
Max MFI (Full-length Human 4-1BB [4]): 4940 MFI
Kd (Human OX40 ECD-AFH): 0.4 nM
koff (Human OX40 ECD-AFH): 0.00016 s⁻¹
kon (Human OX40 ECD-AFH): 400000 M⁻¹ s⁻¹
Kd (Human 4-1BB ECD-AFH): 7 nM
koff (Human 4-1BB ECD-AFH): 0.002 s⁻¹
kon (Human 4-1BB ECD-AFH): 280000 M⁻¹ s⁻¹
EC50 (read off the curve) (Full-length Cyno 4-1BB): ~0.6 nM
EC50 (read off the curve) (Full-length Cyno OX40): ~2 nM
B3: FXX01047 (bispecific antibody)
chain: EVQLVQSGAEVKKPGASVKVSCKASGYTFTSYWMNWVRQAPGQGLEWMGNIYPGSSTTNYAQKFQGRVTMTVDTSTSTVYMELSSLRSEDTAVYYCASFSDGYYAYAMDYWGQGTLVTVSSGGGGSGGGGSGGGGSGGGGSEIVMTQSPATLSLSPGERATLSCRASQDISNYLNWYQQKPGQAVRLLIYYTSRLHSGIPARFSGSGSGTDYTLTISSLQPEDFAVYFCQQGYTLPYTFGQGTKVEIKEPKSSDKTHTCPPCPAPPAAAPSVFLFPPKPKDTLMISRTPEVTCVVVDVSHEDPEVKFNWYVDGVEVHNAKTKPREEQYNSTYRVVSVLTVLHQDWLNGKEYKCAVSNKALPAPIEKTISKAKGQPREPQVYTLPPSRDELTKNQVSLTCLVKGFYPSDIAVEWESNGQPENNYKTTPPVLDSDGSFFLYSKLTVDKSRWQQGNVFSCSVMHEALHNHYTQKSLSLSPGGGGSPSSYVLTQPPSVSVAPGQTARITCGGNNIGSKSVNWFQQKPGQAPVLVVYDDSGRPSGIPERFSGSTSGNTATLTISRVEAGDEADYYCQVWDSSSDHVVFGGGTKLTVLGGGGSGGGGSGGGGSGGGGSQVQLVESGGGVVQPGRSLRLSCAASGFTLSYYGMHWVRQAPGKGLEWVAAISHDGSDKYYADSVKGRFTISRDNSKNTLYLQMNSLRAEDTAVYYCSNDQFDPWGQGTLVTVSSR
notes: ADAPTIR scFv-Fc-scFv, anti-4-1BB N-terminal, anti-OX40 C-terminal; also called FX01047
